Results taken from publication PMC3829167, “Directed Evolution of an Angiopoietin-2 Ligand Trap by Somatic Hypermutation and Cell Surface Display*” (The Journal of Biological Chemistry, 2013).
Substitutions are numbered along the chain they refer to. Numbers in names are those of the source.

T1: human angiopoietin 2 (human, UniProt O15123 19-496)
T1 construct: human angiopoietin 2 (Ang2), recombinant protein from R&D Systems; also called Ang2; source: bought: R&D Systems
T1 sequence (looked up): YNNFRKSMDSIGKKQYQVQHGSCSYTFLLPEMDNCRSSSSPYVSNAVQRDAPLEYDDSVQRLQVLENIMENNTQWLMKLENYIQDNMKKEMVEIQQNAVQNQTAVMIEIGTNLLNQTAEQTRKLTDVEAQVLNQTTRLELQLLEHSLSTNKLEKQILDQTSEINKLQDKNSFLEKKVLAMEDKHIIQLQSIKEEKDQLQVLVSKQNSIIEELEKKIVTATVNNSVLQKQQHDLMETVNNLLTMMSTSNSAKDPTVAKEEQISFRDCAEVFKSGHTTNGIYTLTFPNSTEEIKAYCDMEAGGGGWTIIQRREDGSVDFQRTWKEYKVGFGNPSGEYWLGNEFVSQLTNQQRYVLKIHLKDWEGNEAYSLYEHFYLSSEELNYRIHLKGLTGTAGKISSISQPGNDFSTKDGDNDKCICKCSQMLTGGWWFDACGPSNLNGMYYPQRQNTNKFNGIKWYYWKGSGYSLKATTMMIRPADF

T2: human angiopoietin 1 (human, UniProt Q15389 16-498)
T2 construct: human angiopoietin 1 (Ang1), recombinant protein from R&D Systems; in the other experiments it was detected with anti-Ang1 or immobilised; also called Ang1; source: bought: R&D Systems
T2 sequence (looked up): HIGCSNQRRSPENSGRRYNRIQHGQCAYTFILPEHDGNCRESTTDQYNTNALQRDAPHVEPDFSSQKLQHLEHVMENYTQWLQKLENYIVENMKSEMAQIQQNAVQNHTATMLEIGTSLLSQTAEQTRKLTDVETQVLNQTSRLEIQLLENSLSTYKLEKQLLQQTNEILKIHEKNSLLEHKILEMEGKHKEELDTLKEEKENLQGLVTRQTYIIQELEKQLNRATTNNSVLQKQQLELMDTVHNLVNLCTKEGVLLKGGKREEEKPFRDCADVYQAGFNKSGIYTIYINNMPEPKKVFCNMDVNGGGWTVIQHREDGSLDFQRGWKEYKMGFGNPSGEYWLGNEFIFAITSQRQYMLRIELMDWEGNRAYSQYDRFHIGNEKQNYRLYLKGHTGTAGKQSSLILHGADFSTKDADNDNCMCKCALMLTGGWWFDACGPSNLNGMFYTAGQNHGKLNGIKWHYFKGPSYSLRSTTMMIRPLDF

B1: soluble Tie2 ectodomain (1-442)-Fc fusion protein with F161I substitution (Fc fusion, human, UniProt Q02763 23-442, looked up)
chain: AMDLILINSLPLVSDAETSLTCIASGWRPHEPITIGRDFEALMNQHQDPLEVTQDVTREWAKKVVWKREKASKINGAYFCEGRVRGEAIRIRTMKMRQQASFLPATLTMTVDKGDNVNISFKKVLIKEEDAVIYKNGSIIHSVPRHEVPDILEVHLPHAQPQDAGVYSARYIGGNLFTSAFTRLIVRRCEAQKWGPECNHLCTACMNNGVCHEDTGECICPPGFMGRTCEKACELHTFGRTCKERCSGQEGCKSYVFCLPDPYGCSCATGWKGLQCNEACHPGFYGPDCKLRCSCNNGEMCDRFQGCLCSPGWQGLQCEREGIQRMTPKIVDLPDHIEVNSGKFNPICKASGWPLPTNEEMTLVKPDGTVLHPKDFNHTDHFSVAIFTIHRILPPDSGVWVCSVNTVAGMVEKPFNISVK
notes: signal peptide in the construct; human Tie2 ectodomain, residues 1-442, F161I; also called F/I; F161I ectodomain; source: HEK293 cells, transfected, secreted, purified (nickel-nitrilotriacetic acid chromatography); not shown: Fc (human), C-terminal, kept
B2: soluble evolved (R3) Tie2 ectodomain (1-442)-Fc fusion protein (Fc fusion, human, UniProt Q02763 23-442, looked up)
chain: AMDLILINSLPLVSDAETSLTCIASGWRPHEPITIGRDFEALMNQHQDPLEVTQDVTREWAKKVVWKREKASKINGAYFCEGRVRGEAIRIRTMKMRQQASFLPATLTMTVDKGDNVNISFKKVLIKEEDAVIYKNGSIIHSVPEVPDILEVHLPHAQPQDAGVYSARYIGGNLFTSAFTRLIVRRCEAQKWGPECNHLCTACMNNGVCHEDTGECICPPGFMGRTCEKACELHTFGRTCKERCSGQEGCKSYVFCLPDPYGCSCATGWKGLQCNEACHPGFYGPDCKLRCSCNNGEMCDRFQGCLCSPGWQGLQCEREGIQRMTPKIVDLPDHIEVNSGKFNPICKASGWPLPTNEEMTLVKPDGTVLHPKDFNHTDHFSVAIFTIHRILPPDSGVWVCSVNTVAGMVEKPFNISVK
notes: signal peptide in the construct; human Tie2 ectodomain, residues 1-442, with F161I and the deletion of Arg-167/His-168 introduced by site-directed mutagenesis; The changes were found by directed evolution and put into m3 by site-directed mutagenesis; also called evolved ectodomain; R3 ectodomain; source: HEK293 cells, transfected, secreted, purified (nickel-nitrilotriacetic acid chromatography); …
B3: soluble Tie2 ectodomain (1-442)-Fc fusion protein with the double Arg-167/His-168 deletion (Fc fusion, human, UniProt Q02763 23-442, looked up)
chain: B2 chain with I139F
notes: signal peptide in the construct; human Tie2 ectodomain, residues 1-442, Arg-167 and His-168 deleted; also called ΔRH; ΔArg-167/His-168; source: HEK293 cells, transfected, secreted, purified (nickel-nitrilotriacetic acid chromatography); not shown: Fc (human), C-terminal, kept

These binders were tested against T1, human angiopoietin 2 (assay: ELISA; 5 μg/ml Ang1 or Ang2 immobilised in 96-well plates; blocked with TBS, 1 mg/ml BSA, 0.1% Triton-X 100; ectodomain-Fc fusion protein bound for 1 h at different concentrations, detected with anti-Tie2 ectodomain antibodies; saturation binding curves fitted by nonlinear regression). Conditions: both partners purified.
B1 was tested, and the “Max binding (% of WT)” value was 90.5 % of WT. B2 was tested, and the “Max binding (% of WT)” value was 59.4 % of WT. B3 was tested, and the “Max binding (% of WT)” value was 0.58 % of WT.

Each binder was assayed against T2, human angiopoietin 1 in the same assay as above. Conditions: both partners purified.
B1 was tested, and the “Max binding (% of WT)” value was 97.8 % of WT. For B2, the “Max binding (% of WT)” value was 3 % of WT. B3 was tested, and the “Max binding (% of WT)” value was 0.29 % of WT.
